Reference: the nanobody polyreactivity screen of Harvey et al. (2022)

assay: yeast display, Sf9 membrane polyspecificity reagent, FACS + sequencing; frameworks hold sequencing errors
Procedure, shortened: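 Sorting gates, low and high (top ~1%), were placed on anti-HA fluorescence to track expression and on streptavidin fluorescence to track reagent binding. A clone's polyreactivity label is taken from the gate it came out of. The reagent was 10% biotinylated, detergent-solubilized Sf9 membrane, applied for 1 hour at 4 °C to galactose-induced yeast display cells.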

Sequence | polyreactivity (PSR sort gate)
QVQLVESGGGLVQAGGSLRLSCAASGRICGSYAMGWYRQAPGKERELVAAISWRGTSTYYADSVKGRFTISRDNAKNTVYLQMNSLKPEDTAVYYCAAAVDAFTNKQYYYWGQGTLVTVSS | low polyreactivity
QVQLVESGGGLVQAGGSLRLSCAASGRICGVYAMGWYRQAPGKERELVAAITARGGSTYYADSVKGRFTISRDNAKNTVYLQMNSLKPEVTAVYYCATRLYKRTRTITYGYWGQGTQVTVSS | high polyreactivity
QVQLVESGGGLVQAGGSLRLSCAASGRICWGYAMGWSRQAPGKERELVARITSGGDTYYADSVKGRFTISRDNAKNTVYLQMNSLKPEDTAVYYCAKSPAVKPYAYRESGFIYDYWGQGTQVTVSS | low polyreactivity
QVQLVESGGGLVQAGGSLRLSCAASGRIFAAYAMGWYRQAPGKERELVAGISRGGRTYYADSVKGRFTISRDNAKNTVYLQMNSLKPEDTAVYYCAKRATGQYSITAYGYDYWGQGTQVTVSS | low polyreactivity
QVQLVESGGGLVQAGGSLRLSCAASGRIFAAYAMGWYRQAPGKERELVAGISRGGRTYYADSVKGRFTISRDNAKNTVYLQMNSLKPEDTAVYYCAKRATGQYSITTYGYDYWGQGTQVTVSS | low polyreactivity
QVQLVESGGGLVQAGGSLRLSCAASGRIFADYAMGWYRQAPGKERELVAAIDWSDGSTKYADSVKGRFTISRDKAKNTVYLQMNSLKPEDTAVNYCAADYWPRDGLGWWYDYWGQGTQVTVSS | low polyreactivity
QVQLVESGGGLVQAGGSLRLSCAASGRIFAFNAMGWYRQAPGKERELVADITSSGVNTYYADSVKGRFTISRDNAKNTVYLQMNSLKPEDTAVYYCAARSYLRWWVGMEYCGQGTQVTVSS | low polyreactivity
QVQLVESGGGLVQAGGSLRLSCAASGRIFAFYAMGGYRQAPGKERELVAAITSGGSTKYADSVKGRFTISRDNAKNTVYLHMKSLKPEDTAVYYSAAQYRYQRYSDAMEYWGQGTQVTVSS | high polyreactivity
QVQLVESGGGLVQAGGSLRLSCAASGRIFAGYAMGWDRQAPGKERELVATISSGGSTYYADSVKGRFTISRDNAKNTVYLQMNSLKPEDTAVYYCAAEYGTRQYSSYYKLFNYWGQGTQVTVSS | low polyreactivity
QVQLVESGGGLVQAGGSLRLSCAASGRIFAGYAMGWYRQAPGKERELLATISSGGSTYFAHSVKGRFTISRDNAKNTVYLQMNSLKPEDTAVYYCSAEYGTRQYSCYYKLFNYWGQGTQVTVSS | low polyreactivity
QVQLVESGGGLVQAGGSLRLSCAASGRIFAGYAMGWYRQAPGKERELVAAISDGGTTNYADSVKGRFTISRDNAKNTVYLQMNSLKPEDTAVYYCAKVAAESYRYGYWGQGTQVTVSS | low polyreactivity
QVQLVESGGGLVQAGGSLRLSCAASGRIFAGYAMGWYRQAPGKERELVAGISNRGGSTYYADSVKGRFTISRDNAKKTVYLQMNRLKPEDTAVYYCAVRRRSLGGYWGQGTQVTVSS | high polyreactivity
QVQLVESGGGLVQAGGSLRLSCAASGRIFAGYAMGWYRQAPGKERELVARISRGDDSTYYADSVKGRFTISRDNAKNTVYLQMNSLKPEDTAFYFCAADYPDVVYLEYDYWGQGTQVTVSS | low polyreactivity
QVQLVESGGGLVQAGGSLRLSCAASGRIFAGYAMGWYRQAPGKERELVASIRSSGSTYYADSVKGRFTISRDNAKNTVYLQMNSLKPEDTAVYYCNAVPRRRRYSRLGYWGQGTQVTVSS | high polyreactivity
QVQLVESGGGLVQAGGSLRLSCAASGRIFAGYAMGWYRQAPGKERELVATITYRGGNTYYADSVKGRFTISRDNAKNTVYLQMNSLKPEDTAVYYCAKGPYRYLYRAYPGGYWGQGTQVTVSS | high polyreactivity
QVQLVESGGGLVQAGGSLRLSCAASGRIFAGYTMGWYRQAPGKERELVAAISGSGGRTYYADSVKGRFTISRDIAKNTVYLQMNSLKPEDTAVYYCAAYRSRTYGYWGQGTQVTVSS | high polyreactivity
QVQLVESGGGLVQAGGSLRLSCAASGRIFAHNAMGWYRQAPGKERELVAAISSSDGSTYYADSVKGRFTISRDNAKNTVYLQMNSLKPEDTAVYYCAARGSPSKHHWYDYWGQGTQVTVSS | low polyreactivity
QVQLVESGGGLVQAGGSLRLSCAASGRIFAHNAMGWYRQPPGKARELVAAITWSGGSTYYADSVKGRFTISRDNAKKTVYLQMNSLNPEDTAVYYCNNDSHGHLYNYWGQGTQVCVSS | low polyreactivity
QVQLVESGGGLVQAGGSLRLSCAASGRIFAINTMGWYRQAPGKERELVAAINNGGSTNYADSVKGRFTISRDNAKNTVYLQMNSLKPEDTAVYYCAAEGLPYVRVFDFVSRYDYWGQGTQVTVSS | low polyreactivity
QVQLVESGGGLVQAGGSLRLSCAASGRIFALNVMGWYRQAPVKERELFAVINRSGNTNYADSVKGRFTSSRDNAKNTVYLQMNSLKPEDTAVYYCAARRVGYGTDRYYGYDSWGQGTQVTVSS | high polyreactivity
QVQLVESGGGLVQAGGSLRLSCAASGRIFANYAMGWYRQAPGKERELVAAIYWSDDDTYYADSVKGRFTISRDNAKNTVYFQMNRLIPEDTAVYYCAADGRYGWYYGVYNGEDYWGQGTQVTVSS | high polyreactivity
QVQLVESGGGLVQAGGSLRLSCAASGRIFAQNAMGWYRQAPGKERELVAAISWGGGGTYYADSVKGRFTISRDNAKNTVYLQMNSLKPEDTAVYYCAADSPGFGAWDRYEYWGQGTQVTVSW | low polyreactivity
QVQLVESGGGLVQAGGSLRLSCAASGRIFARNAMGWYRQAPGKERELVAAISWSGGRTYYADSVKGRFTISRDNAKNTVYLQMNSLKPEDTAVYYCAADHYPWWAWEFDYWGQGTQVTVSS | low polyreactivity
QVQLVESGGGLVQAGGSLRLSCAASGRIFARNAMGWYRQAPGKERELVAAITYSGGSTYYADSVKGRFTISRDNAKNTVYLQMNSLKPEDTAVYYCAAETSNRGRRYYYWGQGTQVTVSS | high polyreactivity
QVQLVESGGGLVQAGGSLRLSCAASGRIFARYAKGWSRQAPGKERELVAAISRGGSTKNADSVKGRFTISRDNAKITVYLQMNSLKPEDTAVYYCATEYYGPVYDLDYDYWGQGTQVTVSS | low polyreactivity
QVQLVESGGGLVQAGGSLRLSCAASGRIFARYAMGWYRQAPGKERELVAAITNVGSTYADSVKGRFTISRDNAKNTVYLQMNSLKPEDTAVYYCAARSKYDQVRATFWLFDYWGQGTQVTVSS | low polyreactivity
QVQLVESGGGLVQAGGSLRLSCAASGRIFARYAMGWYRQAPGKERELVAAITSRGGSTYYADSVKGRFTISRDNAKNTVYLQMNSLKPEDTAVYYCNADYYRRPYYYWGQGTQVTVSS | high polyreactivity
QVQLVESGGGLVQAGGSLRLSCAASGRIFARYAMGWYRQAPGKERELVASINSGGNTYYADSVKGRFTISRDNAKNTVYLQMNSLKPEDTAVYYCAAVVGRRASSRSRFEYDYWGQGTQVTVSS | low polyreactivity
QVQLVESGGGLVQAGGSLRLSCAASGRIFARYVMGWYRQAPGKERELVAAISRRAGNTYYADSVKGRFTISRDNAKNTVYLQMNSLKPEDTAVYYCAVRYSYYALSTSRYGYWGQGTQVTVSS | high polyreactivity
QVQLVESGGGLVQAGGSLRLSCAASGRIFASYAMGWYRQAPGKERELVAAISLSGGSTYYADSVKGRFTISRDNAKNTVYLQMNSLKPEDTAVYYCAAKNYRRYRDYYWGQGTQVTVSS | high polyreactivity
